# Measured values as given in patent publication US8956838B2, “Carboxyl esterase polypeptides” (B.R.A.I.N., priority 2006, dated 2015).
# B1: EstCE1: recombinant enzyme having carboxyl esterase activity, amino acid sequence SEQ ID NO: 4, family VIII of bacterial lipolytic enzymes (protein)
# chain: MSIADQSLAKRVQGVSQQAIDEGRIVGSVVLIARHGRVIYANASGYADREQKKPMVRETQFRLSSVSKPYITLAAMRMIEQQKLGLDDTVSRWLPWFTPALADGVRPPIKIRHLLSHTAGLDYRLSQPAEGPYHRLGIKDGMELSSLTLEQNLRLLAQADLLAEPGSEFRYSLAIDVLGAVLEQVAGEPLPQVFNHWVAQPLGLRNTGFYTTDVDNLATAYHDTAAEPEPIRDGMLLTLPEGFGFEIELAPSRALDAQAYPSGGAGMVGDADDVLQLVETLRTGKEGILQPATAALMRQAHVGSHAETQGPGWGFGFGGAVLEDAQLAATPQHNGTLQWGGVYGHSWFYDPQAAISVVALTNTAFEGMSGRYPLQIRDAVYGTNEPTR
# modifications: metagenomic sequence
# B2: EstA3: recombinant enzyme having carboxyl esterase activity, amino acid sequence SEQ ID NO: 2, family VIII of bacterial lipolytic enzymes (protein)
# chain: MSAEELGFLPDRLARISDHIQTNYLDNGKLPFASLLIGRGDDIALQWSSGVADDAIFRIASMTKPVTSVAFMQLVEQGKVALTDPVAKYIPEFAKLGVFVAGGGNIPFVSRPPTMPMRIVDVLRHTTGFTYSFQERSNIDAAYRKTDVESWTRSTSQSFIDTLAEIPLEFDPGTQWNYSVSTDVLGILIERISGQSLPDYFRDHIFAPLGMVDTCFTVPADKAARIPQCFAFDPATKMKLFDEAGASSLWTKGWSFNSGGGGLASSVADYHRFCRMLLNGGALDGIQIISPKTLELMTANHLPGGQDLTQMSKSLFSEAEMAGIGFGLGFATTIDSVATLTPCSTGDFYWGGMYSTAFFVDPVEDIIMIFMTQLMPSSTYPVRREIKTMIYSALAA
# modifications: metagenomic sequence
# Legend:
# [1] = Enantioselectivity, GC analysis of hydrolysis of acetic acid esters; type: biochemical; details: for conversion %: ^2 only complete conversion could be measured
# Experimental: To assay the activity of the enzymes on a range of acetic acid esters gas chromatography was used. The samples were analyzed for the production of chiral alcohols by the gas chromatograph GC-17A (Shimadzu, Duisburg, Germany) equipped with FID detector and CP-Chirasil-DEX CB (Chrompack (Middelburg, Netherlands), 25 m×0.25 mm ID) at a helium flow of 1.3 ml/min. The temperature programme included: 5 min at 60° C., followed by an increase of 5° C. per min until 190° C. was reached. For the GC analysis, activity-tests were run in 1 M Tris buffered solutions and using 10 mM substrates dissolved in DMSO as 0.1 M stock solutions. 2 μg of the enzyme were added and tests incubated over night before the corresponding alcohols could be extracted by treatment with acetic acid ethyl ester and analyzed by GC.
# [2] = Enzyme activity fingerprinting with substrate cocktails; type: biochemical; details: substrate 7-(3-octylcarboxy-(3-hydroxy-3-methyl-butyloxy))-coumarine; fingerprint analysis, 15 μM, 30 min
# Experimental: The enzyme activity fingerprinting used 10 substrates and was carried out as described previously. The assay conditions were 75% PBS buffer at pH 7.4, 25% DMSO and 0.0025% SDS. Each substrate was present in the cocktail at 15 μM, the total concentration of the substrate cocktail was 150 μM. EstA3 was added at a concentration of 0.75 mg/L and EstCE1 at 0.2075 mg/L. The reaction time was 30 min. The chemical background was measured by recording the products observed under the same assay conditions after a 5 day incubation in the absence of the enzyme. The blank value was taken from the reaction after 30 min incubation in the absence of the enzyme.
# [3] = acetic acid ester of R-(+)-3-chlor-1-phenyl-1-propanol
# [4] = acetic acid ester of rac-1-octin-3-ol
# [5] = acetic acid ester of trimethylsilylbutinol
# [6] = substrate Acetic acid ester of tetrahydronaphthylamin
# [7] = substrate acetic acid ester of (+/−)-1-octin-3-ol
# [8] = substrate acetic acid ester of (+/−)-1-octin-3-ol, 10 mM, over night
# [9] = substrate acetic acid ester of R-(+)-3-chlor-1-phenyl-1-propanol
# [10] = substrate acetic acid ester of cis-1,2-cyclohexandiol, values marked ^1: substrate conversion after 12 h
# [11] = substrate acetic acid ester of phenylethylamin
# [12] = substrate acetic acid ester of trans-1,2-cyclohexandiol
# [13] = substrate acetic acid ester of trans-1,2-cyclohexandiol, in text: conversion of the preferred enantiomer
# [14] = substrate acetic acid ester of trimethylsilylbutinol
# [15] = substrate cis-3,5-diacetoxy-1-cyclopenten
# [16] = substrate cis-3,5-diacetoxy-1-cyclopenten, conversion for the preferred enantiomer
# [17] = substrate isopropylidenglycerolacetate (rac.), values marked ^1: substrate conversion after 12 h
# [18] = substrate menthylacetate, 1. enantiomer (+)
# [19] = substrate menthylacetate, 2.e. (−)
Molecule,"hydrolysis, in words [1, 3]","hydrolysis, in words [1, 4]","hydrolysis, in words [1, 5]","conversion % of 1.e [1, 6]","conversion % of 2.e [1, 6]","ee % [1, 7]","conversion % of 1.e [1, 8]","conversion % of 2.e [1, 8]","conversion % [1, 9]","conversion % of 1.e [1, 10]","conversion % of 2.e [1, 10]","conversion % of 1.e [1, 11]","conversion % of 2.e [1, 11]","conversion % of 2.e [1, 12]","conversion % of 1.e [1, 13]","conversion % [1, 14]","conversion % of 2.e [1, 15]","ee % [1, 15]","conversion % of 1.e [1, 16]","conversion % of 1.e [1, 17]",other results
B1,capable of hydrolyzing,capable of hydrolyzing,capable of hydrolyzing,0%,0%,3%,64%,60%,100^2%,100^1%,100^1%,0%,0%,45%,100%,100^2%,59%,66%,12%,100^1%,"conversion, in words ([1]; acetic acid ester of cis-1,2-cyclohexanediol): capable of converting; conversion, in words ([1]; acetic acid ester of isopropylidene glycerol): capable of converting; ee % ([1]; substrate acetic acid ester of cis-1,2-cyclohexandiol): 0%; ee % [1, 12]: 38%; ee % ([1]; substrate isopropylidenglycerolacetate (rac.)): 0%; conversion % of 2.e [1, 17]: 100^1%; ee % ([1]; substrate menthylacetate (rac), for the (+)-enantiomer): 100%; conversion % of 1.e [1, 18]: 100%; conversion % of 2.e [1, 19]: 0%"
B2,capable of hydrolyzing,capable of hydrolyzing,capable of hydrolyzing,0%,0%,12%,24%,18%,6^2%,0%,0%,0%,0%,0%,0%,45^2%,0%,100%,24%,0%,"conversion % of 2.e [1, 17]: 0%; conversion % of 1.e [1, 18]: 0%; conversion % of 2.e [1, 19]: 0%; conversion of secondary ester, in words [2]: able to convert"
